Experimental data: paper PMC11441417 (Nanoscale Horizons, 2024)
Where two headings read alike, the source gives them in different places.

T1: reovirus T1L σ3_(3)μ1_(3) heterohexamer (mammalian orthoreovirus type 1 Lang …, UniProt P07939 1-365; P11077 1-708)
T1 sequence (looked up) 1: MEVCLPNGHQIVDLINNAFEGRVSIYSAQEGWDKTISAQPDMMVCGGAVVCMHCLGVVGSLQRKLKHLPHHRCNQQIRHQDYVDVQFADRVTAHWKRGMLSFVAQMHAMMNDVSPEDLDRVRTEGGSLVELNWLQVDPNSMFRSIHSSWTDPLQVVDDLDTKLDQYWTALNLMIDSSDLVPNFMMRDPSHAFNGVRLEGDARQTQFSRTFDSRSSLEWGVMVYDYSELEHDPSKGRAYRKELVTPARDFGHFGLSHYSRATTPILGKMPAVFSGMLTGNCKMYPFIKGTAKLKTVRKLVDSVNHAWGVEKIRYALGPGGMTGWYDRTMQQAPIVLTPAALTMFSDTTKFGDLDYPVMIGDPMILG
T1 sequence (looked up) 2: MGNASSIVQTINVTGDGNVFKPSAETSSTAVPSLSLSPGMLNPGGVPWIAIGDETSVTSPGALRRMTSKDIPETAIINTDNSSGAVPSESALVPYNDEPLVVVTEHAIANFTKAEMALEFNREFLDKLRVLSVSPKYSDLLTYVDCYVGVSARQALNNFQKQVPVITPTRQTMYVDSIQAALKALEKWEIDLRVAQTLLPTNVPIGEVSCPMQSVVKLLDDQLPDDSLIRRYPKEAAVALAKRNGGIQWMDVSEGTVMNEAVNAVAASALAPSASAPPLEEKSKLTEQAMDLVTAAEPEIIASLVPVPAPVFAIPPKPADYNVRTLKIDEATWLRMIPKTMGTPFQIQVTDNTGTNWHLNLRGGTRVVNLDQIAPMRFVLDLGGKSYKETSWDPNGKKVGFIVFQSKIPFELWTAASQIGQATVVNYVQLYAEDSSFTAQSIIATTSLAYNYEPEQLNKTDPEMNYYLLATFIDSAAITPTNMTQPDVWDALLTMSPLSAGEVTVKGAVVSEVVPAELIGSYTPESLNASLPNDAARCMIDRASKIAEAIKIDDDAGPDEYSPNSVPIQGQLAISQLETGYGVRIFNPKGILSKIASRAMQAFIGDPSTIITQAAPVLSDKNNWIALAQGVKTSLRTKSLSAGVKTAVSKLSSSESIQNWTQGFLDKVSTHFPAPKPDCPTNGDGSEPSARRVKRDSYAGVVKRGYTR

B1: Fc-tagged mouse NgR1 (Fc fusion)
chain: CPGACVCYNEPKVTTSCPQQGLQAVPTGIPASSQRIFLHGNRISHVPAASFQSCRNLTILWLHSNALARIDAAAFTGLTLLEQLDLSDNAQLHVVDPTTFHGLGHLHTLHLDRCGLRELGPGLFRGLAALQYLYLQDNNLQALPDNTFRDLGNLTHLFLHGNRIPSVPEHAFRGLHSLDRLLLHQNHVARVHPHAFRDLGRLMTLYLFANNLSMLPAEVLMPLRSLQYLRLNDNPWVCDCRARPLWAWLQKFRGSSSEVPCNLPQRLADRDLKRLAASDLEGCAVASGPFRPIQTSQLTDEELLSLPKCCQPDAADKASVLEPGRPASAGNALKGRVPPGDTPPGNGSGPRHINDSPFGTLPSSAEPPLTALRPGGSEPPGLPTTGPRRRPGCSRKNRTRSHCRLGQAGSGASGTGDAEGS
B2: His-tagged mouse Nogo-66 receptor 1 (amino acids 1-447) (receptor, UniProt Q99PI8 27-447, looked up)
chain: B1 chain
B3: His-tagged human Nogo-66 receptor 1 (amino acids 1-310) (receptor, UniProt Q9BZR6 27-310, looked up)
chain: CPGACVCYNEPKVTTSCPQQGLQAVPVGIPAASQRIFLHGNRISHVPAASFRACRNLTILWLHSNVLARIDAAAFTGLALLEQLDLSDNAQLRSVDPATFHGLGRLHTLHLDRCGLQELGPGLFRGLAALQYLYLQDNALQALPDDTFRDLGNLTHLFLHGNRISSVPERAFRGLHSLDRLLLHQNRVAHVHPHAFRDLGRLMTLYLFANNLSALPTEALAPLRALQYLRLNDNPWVCDCRARPLWAWLQKFRGSSSEVPCSLPQRLAGRDLKRLAANDLQGCA

Experiments:
Assay in all cases: AFM single-molecule force spectroscopy
[1] = molecular target: reovirus type 1 Lang (T1L) virion (mammalian orthoreovirus type 1 Lang (T1L)) (UniProt P07939)
[2] = molecular target: T1, reovirus T1L σ3_(3)μ1_(3) heterohexamer
[3] = molecular target: T1, reovirus T1L σ3_(3)μ1_(3) heterohexamer; remark: listed apart in the source

Binder | Kd [1] [nM] | koff [1] [s⁻¹] | kon [1] [M⁻¹ s⁻¹] | Kd [2] [nM] | koff [2] [s⁻¹] | kon [2] [M⁻¹ s⁻¹] | koff [3] [s⁻¹]
B1 | 93.5 | 0.65 | 6.94e+06 | – | – | – | –
B2 | – | – | – | 76.8 ± 51.8 | 0.23 ± 0.12 | 2.99e+06 ± 460000 | –
B3 | – | – | – | – | 0.32 ± 0.21 | 2.17e+06 ± 200000 | 3.51 ± 2.02
